This note sets out measurements from patent US5635384 (DowElanco, dated 1997).

In this experiment the target is T1, maize αβ RIP β fragment (maize).
T1 chain: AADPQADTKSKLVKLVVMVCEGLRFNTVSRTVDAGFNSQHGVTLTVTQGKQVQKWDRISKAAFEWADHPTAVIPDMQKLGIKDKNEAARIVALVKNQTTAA
In words: reverse phase and ion exchange chromatography.

B1: maize αβ RIP α fragment (other)
chain: KRIVPKFTEIFPVEDANYPYSAFIASVRKDVIKHCTDHKGIFQPVLPPEKKVPELWFYTELKTRTSSITLAIRMDNLYLVGFRTPGGVWWEFGKDGDTHLLGDNPRWLGFGGRYQDLIGNKGLETVTMGRAEMTRAVNDLAKKKK
For the molecule B1, the binding result was “binds”.
